Assays:
[1] = molecular target: human PCPE-1 (procollagen C-proteinase enhancer protein-1), no tag (human) (UniProt Q15113); assay: SPR
[2] = molecular target: homotrimeric mini-procollagen II (human); assay: SDS-PAGE in non-reducing against reducing
[3] = molecular target: mini-procollagen III (human); assay: SDS-PAGE in non-reducing against reducing
[4] = molecular target: α2 chain of mini-procollagen I (human); assay: co-purification by the tag of one chain, SDS-PAGE of the BMP-1 cleavage products

UniProt Q15113, sequence (Q15113 26-449): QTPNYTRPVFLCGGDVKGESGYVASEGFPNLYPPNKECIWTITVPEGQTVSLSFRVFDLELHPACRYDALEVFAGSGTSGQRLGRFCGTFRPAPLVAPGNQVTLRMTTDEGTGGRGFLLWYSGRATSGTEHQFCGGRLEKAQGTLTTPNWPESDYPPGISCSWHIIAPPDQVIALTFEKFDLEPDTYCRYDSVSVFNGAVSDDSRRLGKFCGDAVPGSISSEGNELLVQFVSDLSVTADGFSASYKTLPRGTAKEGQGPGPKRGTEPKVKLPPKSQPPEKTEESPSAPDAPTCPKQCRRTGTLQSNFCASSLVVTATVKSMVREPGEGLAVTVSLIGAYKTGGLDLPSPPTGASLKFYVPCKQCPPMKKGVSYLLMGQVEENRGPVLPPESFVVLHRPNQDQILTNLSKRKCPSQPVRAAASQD

KD1 (heterogeneous ligand model) [1] [nM]	KD2 (heterogeneous ligand model) [1] [nM]	stoichiometry N [2]	stoichiometry N [3]	stoichiometry N (α1 chains for one α2 chain) [4]	Substance
< 15	< 15	3			homotrimeric mini-procollagen II (domain or fragment)
< 15	< 15				heterotrimeric mini-procollagen I (complex)
< 15	< 15		3		mini-procollagen III (domain or fragment)
				2	α1 chain of mini-procollagen I (domain or fragment)

From doi:10.1101/2022.11.10.516045
